# Values joined by “and” are separate entries in the source; they are usually repeats but may differ in a detail not shown here. Identical values can stand only once. “Also recorded” adds a separate entry of the source.
# Key:
# Type in all cases: cell-based, human
# [1] = tested on: LM-MEL-62 melanoma cells; test: In vitro killing assays (antibody titration, E:T titration), MTS
# Method: Vγ9Vδ2 cells were isolated from either healthy donor (Red Cross Australia) or cancer patient derived PBMC using TCRγ/δ+ T Cell Isolation Kit (Miltenyi). Patients provided informed consent and research was approved under HREC 14/425. […] For all assays LM-MEL-62 melanoma cells were plated out at 10,000 cells/well in 100 μl RF10 media in 96-well flat bottomed plates and left to adhere overnight at 37 degrees C. and 5% CO2. […] Cells were incubated at 37 degrees C. and 5% CO2. At day 3 Vγ9Vδ2 cells were washed out and 100 μl MTS reagent was added to wells for 1 hour as per manufacturers protocol (Promega, USA). Plates were subsequently read at 490 nm using a Spectrostar Nano microplate reader (BMG Labtech) to determine cell viability corrected for background absorbance.
# [2] = tested on: γδ T cells; test: Identification of BTN2A1 agonistic antibodies: CD25 and interferon γ of expanded γδ T cells; settings: 10 μg/ml antibody overnight, vs isotype control BM4
# Method: In some experiments γδ T cells were enriched by MACS using PE-Cy7-conjugated anti-γδTCR followed by anti-phycoerythrin-mediated magnetic bead purification (Miltenyi Biotec). After enrichment CD3+Vδ2+ γδ T cells were further purified by sorting using an Aria III (BD). Enriched γδ T cells were stimulated in vitro for 48 h with plate-bound anti-CD3ε (OKT3, 10 ug/ml, Bio-X-Cell), soluble anti-CD28 (CD28.2, 1 ug/ml, BD Pharmingen), phytohemagglutinin (0.5 μg/ml, Sigma), IL-15 (50 ng/ml), and recombinant human IL-2 (100 U/ml, PeproTech), followed by maintenance with IL-2 and IL-15 for 14-21 d. Cells were cultured in complete medium consisting of a 50:50 (v/v) mixture of RPMI-1640 and AIM-V (Invitrogen) supplemented with 10% (v/v) FCS (JRH Biosciences), penicillin (100 U/ml), streptomycin (100 μg/ml), Glutamax (2 mM), sodium pyruvate (1 mM), nonessential amino acids (0.1 mM), and HEPES buffer (15 mM), pH 7.2-7.5 (all from Invitrogen Life Technologies), plus 50 μM 2-mercaptoethanol (Sigma-Aldrich).
# The inventors screened the panel of antibodies specific for BTN2A1, as described above, to identify those able to agonise BTN2A1. The inventors assessed the ability of anti-BTN2A1 antibodies to activate γδ T cells. The inventors assessed upregulation of CD25 on the surface of previously expanded γδ T cells following culturing the cells with 10 μg/ml anti-BTN2A1 antibodies or isotype control antibody (BM4) overnight.
# The inventors additionally measured levels of interferon γ secreted by γδ T cells following culture in the presence of 10 μg/ml anti-BTN2A1 antibodies or isotype control antibody (BM4) overnight. Interferon γ secretion is another indicator of TCR-dependent activation.
# [3] = tested on: PBMCs; test: Luminex (PBMCs): cytokine/chemokine expression in freshly isolated PBMCs
# Method: Blood from a healthy donor (Red Cross Australia) was ficolled, PBMC layer collected, washed and 5×10^5 cells were treated with the indicated antibodies in duplicates @ 10 μg/ml in 500 ul TCRPMI supplemented with 100u/ml IL-2 and incubated at 37 degrees C. and 5% CO2 for 16 hrs. Supernatants were collected and submitted for Luminex Human 20-plex Inflammation panel analysis (EPX200-12185-901) to Crux Biolabs (Scoresby, VIC, Australia). This measures the following analytes: GM-CSF; ICAM-1, IFN-α; IFN-g, IL-1α, IL-1b, IL-10, IL-12p70, IL-13, IL-17A, IL-4, IL-8, IP-10, MCP-1, IL-6, MIP-1α, MIP-1b, sE-selectin, sP-Selectin, TNF-α. All samples were run with appropriate controls and standards. Treatment with antibody 259 was only performed in one well.
# [4] = tested on: Vγ9Vδ2 cells; test: Luminex (Vγ9Vδ2): cytokine/chemokine secretion by pre-expanded Vγ9Vδ2 cells; settings: for IL-4 / IL-8 / GMCSF / ICAM-1 / IFNγ / IL-13 / IL-17A / MIP-1a / MIP-1b / TNFα / sE-selectin / sP-Selectin: 16 hrs, antibodies 10 μg/ml, Zoledronic acid 4 μM, HMBPP 0.5 ng/ml, duplicates, 0 set to 0.1;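 for all read-outs here: Vγ9Vδ2 cells purified from PBMC, activated 48 h with CD3 and CD28 plus IL-2, expanded 14 days in IL-2, then thawed and rested overnight in IL-2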
# Method: Briefly, Vγ9Vδ2 cells were isolated from 1 healthy donor (Red Cross Australia) and 1 cancer patient derived PBMC using TCRγ/δ+ T Cell Isolation Kit (Miltenyi). Cells were stimulated for 48 hours in TCRPMI supplemented with 100u/ml IL-2, CD3 (10 μg/ml) and CD28 (1 μg/ml). Cells were washed and grown for 14 days in TCRPMI supplemented with 100u/ml IL-2 at 37 degrees C. and 5% CO2, and then frozen down. […] Vγ9Vδ2 were defrosted and rested overnight in TCRPMI supplemented with 50u/ml IL-2 at 37 degrees C. and 5% CO2. […] All samples were run with appropriate controls and standards.
# [5] = tested on: LM-MEL-62 and LM-MEL-75 melanoma cells; test: Tumor killing/inhibition assay: γδ T cells with melanoma cells 2:1, MTS and CD25; settings: γδ T cells : melanoma cells 2:1, three days, antibody 10 ug/ml
# Method: In the following experiments, γδ T cells were enriched by MACS using PE-Cy7-conjugated anti-γδTCR followed by anti-phycoerythrin-mediated magnetic bead purification (Miltenyi Biotec). After enrichment CD3^+ Vδ2^+γδ T cells were further purified by sorting using an Aria III (BD). […] LM-MEL-62 and LM-MEL-75 melanoma cells were plated out 1×10^4 per well in a 96 well flat-bottom plate In RPMI1640 media supplemented with 10% FBS and left to adhere overnight. […] All conditions were repeated in triplicate. Cells were incubated at 37 degrees and on day 3 Vd2+ cells were acquired by flow cytometry. Live cells were gated and activation determined by analysis of CD25 expression. Melanoma cell viability was determined by MTS assay. MTS reagent was added to RPMI media at a 1:5 ratio and 100 ul added per well. Cells were incubated at 37 degrees for 30 minutes and the plate was read on a Spectrostar nano plate reader at 490 nm. […] Cultures were performed with γδ T cells and melanoma cells (LM-MEL-75 or LM-MEL-62) in a 2:1 ratio.
# [6] = PBMCs from a healthy donor, antibodies 10 μg/ml, 16 hrs, duplicates, 259 one well
# [7] = γδT cells from a healthy donor, listed as 259
# [8] = γδT cells from patient 1 (melanoma patient), listed as 259
molecule,measurement,setting,value
"antibody 259: agonistic anti-BTN2A1 antibody; VL SEQ ID NO: 156, VH SEQ ID NO: 160 (antibody, V domains shown, amino acid sequence of the VH of antibody 259; amino acid sequence of the VL of antibody 259) VH: EVQLLESGGGLVQPGGSLRLSCAASGFTFSSYAMQWVRQAPGKGLEWVSRIGPSGGGTMYADSVKGRFTISRDNSKNTLYLQMNSLRAEDMAVYYCARDLGGLSVLFDYWGQGTLVTVSS VL: QSELTQPPSASETPGQRVTISCSGSSSNIGSNTVSWFQQLPGSAPRLLIYNDHRRPSGVPDRFSGSKSGTSASLVISGLQSQDEADYYCSAWDDSLNGVVFGGGTKLTVL",tumour cell killing compared to treatment with zoledronic acid,"[1]; E:T titration 2:1 to 1:16, 10 ug/ml antibody 259 or 4 uM zoledronate, both donors",killing occurred to a lesser extent
same,"induction of LM-MEL-62 cell killing, 259 compared with 253","[1]; LM-MEL-62 with Vγ9Vδ2 cells 1:1, antibody titration, listed as 259",more potent inducer of cell killing than antibody 253; also recorded: lower viability rates of LM-MEL-62 cells when compared to antibody 253
same,level of secreted interferon γ,[2],increase the level of secreted interferon γ
same,percentage of γδ T cells expressing CD25,[2],increase the percentage of γδ T cells expressing CD25
same,ICAM-1,[3]; [6],1578.36 pg/mL
same,IFNγ,[3]; [6],104.96 pg/mL
same,IL-1α,[3]; [6],8.7 pg/mL
same,IL-1β,[3]; [6],5.19 pg/mL
same,IL-6,[3]; [6],462.59 pg/mL
same,IL-8,[3]; [6],495.89 pg/mL
same,IL-10,[3]; [6],49.99 pg/mL
same,IL-17A,[3]; [6],24.59 pg/mL
same,IP-10,[3]; [6],641.08 pg/mL
same,MCP-1,[3]; [6],1023.7 pg/mL
same,MIP-1α,[3]; [6],131.71 pg/mL
same,MIP-1β,[3]; [6],584.34 pg/mL
same,sE-selectin,[3]; [6],327.64 pg/mL
same,TNFα levels,[3]; full PBMC,no increase
same,"IL-8 (CXCL8), CCL2 (MCP-1) and IL-6","[3]; full PBMC, vs isotype",up-regulated
same,expression of IFNγ and sE-Selectin,"[3]; full PBMC, vs isotype",increased expression
same,"cytokine/chemokine secretion, in words",[4]; across both donors,substantial increase in multiple analytes
same,"cytokine/chemokine secretion, in words","[4]; healthy donor derived Vγ9Vδ2 cells, vs isotype (BM4)",no IL-4 was detected
same,IL-4,[4]; γδT cells from a healthy donor,0.1 pg/mL
same,IL-8,[4]; γδT cells from a healthy donor,0.1 pg/mL
same,GMCSF,[4]; [7],578.23 pg/mL and 608.66 pg/mL
same,ICAM-1,[4]; [7],227.66 pg/mL and 226.25 pg/mL
same,IFNγ,[4]; [7],359.53 pg/mL and 412.2 pg/mL
same,IL-13,[4]; [7],23.33 pg/mL and 31.31 pg/mL
same,IL-17A,[4]; [7],3.7 pg/mL and 4.17 pg/mL
same,MIP-1a,[4]; [7],301.77 pg/mL and 286.07 pg/mL
same,MIP-1b,[4]; [7],9757.6 pg/mL and 9064.66 pg/mL
same,TNFα,[4]; [7],451.81 pg/mL and 481.49 pg/mL
same,sE-selectin,[4]; [7],259.93 pg/mL and 300.24 pg/mL
same,sP-Selectin,[4]; [7],2291.35 pg/mL and 2223.07 pg/mL
same,GMCSF,[4]; [8],1135.87 pg/mL and 1151.41 pg/mL
same,ICAM-1,[4]; [8],798.07 pg/mL and 755.13 pg/mL
same,IFNγ,[4]; [8],598.1 pg/mL and 740.33 pg/mL
same,IL-4,[4]; [8],490.79 pg/mL and 389.47 pg/mL
same,IL-8,[4]; [8],0.93 pg/mL and 1.06 pg/mL
same,IL-13,[4]; [8],399.99 pg/mL and 461.27 pg/mL
same,IL-17A,[4]; [8],5.86 pg/mL and 6.55 pg/mL
same,MIP-1a,[4]; [8],317.76 pg/mL and 361.32 pg/mL
same,MIP-1b,[4]; [8],6921.27 pg/mL and 8238.42 pg/mL
same,TNFα,[4]; [8],1130.35 pg/mL and 1137.89 pg/mL
same,sE-selectin,[4]; [8],311.65 pg/mL and 368.09 pg/mL
same,sP-Selectin,[4]; [8],2170.46 pg/mL and 2424.08 pg/mL
same,CD25 level of expression on γδ T cells in co-culture,[5],upregulated

# From patent publication US20220273713A1, “METHOD OF INHIBITING OR ACTIVATING GAMMA DELTA T CELLS” (The University of Melbourne, priority 2019, published 2022)
